Numbering of substitutions follows the chain as printed.
B1: Recombinant human MMP-2 (protein)
chain: YNFFPRKPKWDKNQITYRIIGYTPDLDPETVDDAFARAFQVWSDVTPLRFSRIHDGEADIMINFGRWEHGDGYPFDGKDGLLAHAFAPGTGVGGDSHFDDDELWTLGEGQVVRVKYGNADGEYCKFPFLFNGKEYNSCTDTGRSDGFLWCSTTYNFEKDGKYGFCPHEALFTMGGNAEGQPCKFPFRFQGTSYDSCTTEGRTDGYRWCGTTEDYDRDKKYGFCPETAMSTVGGNSEGAPCVFPFTFLGNKYESCTSAGRSDGKMWCATTANYDDDRKWGFCPDQGYSLFLVAAHEFGHAMGLEHSQDPGALMAPIYTYTKNFRLSQDDIKGIQELYGASPDIDLGTGPTPTLGPVTPEICKQDIVFDGIAQIRGEIFFFKDRFIWRTVTPRDKPMGPLLVATFWPELPEKIDAVYEAPQEEKAVFFAGNEYWIYSASTLERGYPKPLTSLGLPPDVQRVDAAFNWSKNKKTYIFAGDKFWRYNEVKKKMDPGFPKLIADAWNAIPDNLDAVVDLQGGGHSYFFKGAYYLKLENQSLKSVKFGSIKSDWLGC
B2: Recombinant human ADAM-10 (protein)
chain: TTSAEKNTCQLYIQTDHLFFKYYGTREAVIAQISSHVKAIDTIYQTTDFSGIRNISFMVKRIRINTTADEKDPTNPFRFPNIGVEKFLELNSEQNHDDYCLAYVFTDRDFDDGVLGLAWVGAPSGSSGGICEKSKLYSDGKKKSLNTGIITVQNYGSHVPPKVSHITFAHEVGHNFGSPHDSGTECTPGESKNLGQKENGNYIMYARATSGDKLNNNKFSLCSIRNISQVLEKKRNNCFVESGQPICGNGMVEQGEECDCGYSDQCKDECCFDANQPEGRKCKLKPGKQCSPSQGPCCTAQCAFKSKSEKCRDDSDCAREGICNGFTALCPASDPKPNFTDCNRHTQVCINGQCAGSICEKYGLEECTCASSDGKDDKELCHVCCMKKMDPSTCASTGSVQWSRHFSGRTITLQPGSPCNDFRGYCDVFMRCRLVDADGPLARLKKAIFSPELYENIAE

Assays:
[1] = target: T1, c-Myc conjugated and biotinylated human CD28 stalk region dimeric peptide (wild-type)
T1 chain: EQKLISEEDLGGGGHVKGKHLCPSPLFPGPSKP

[2] = target: T2, quenched fluorogenic peptide of the human CD28 stalk region (WT)
T2 chain: KGKHLSPSPLFPGPSKPE

[3] = target: quenched fluorogenic peptide of the human CD28 stalk region with L145K
[4] = target: T3, L145K mutated biotinylated and Myc tagged human CD28 stalk region dimeric peptide
T3 chain: T1 chain with L26K

Protein | intact peptide by anti-Myc ELISA (25 and 50 ng enzyme, 5 hours) [1] | fluorescence from cleavage of quenched fluorogenic peptide [2] | fluorescence from cleavage of quenched fluorogenic peptide (2.5 µM peptide, 30 ng enzyme) [2] | fluorescence from cleavage of quenched fluorogenic peptide, titration of protease [2] | fluorescence from cleavage of quenched fluorogenic peptide (2.5 µM peptide, 30 ng enzyme) [3] | percent of peptide cleaved (intact peptide by anti-Myc ELISA, 25 and 50 ng enzyme, 5 hours) [4]
B1 | the WT peptide was cleaved in a dose dependent manner | MMP-2 cleaves the stalk domain peptide | both enzymes efficiently cleaved the WT peptide | the cleavage of the peptide was dose dependent | both were completely incapable of cleaving the mutant peptide | the mutated peptide was not substantially cleaved (<5%) by either MMP-2 or MMP-13
B2 | – | ADAM-10 and ADAM-17 did not | – | – | – | –

From patent US20260209355
